In publication PMC2171419 (The Journal of Cell Biology, 2005):

T1: GST–14-3-3ζ Ser184A (UniProt P63104 1-245, Ser184A)
T1 sequence (looked up): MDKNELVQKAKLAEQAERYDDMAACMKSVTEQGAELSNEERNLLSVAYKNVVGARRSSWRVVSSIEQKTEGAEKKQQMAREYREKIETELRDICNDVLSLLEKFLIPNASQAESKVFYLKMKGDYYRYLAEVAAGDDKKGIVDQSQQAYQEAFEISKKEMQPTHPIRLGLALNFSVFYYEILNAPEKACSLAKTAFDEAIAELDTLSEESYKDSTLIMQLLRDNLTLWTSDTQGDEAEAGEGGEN

T2: GST–14-3-3ζ (WT) (UniProt P63104 1-245)
T2 sequence (looked up): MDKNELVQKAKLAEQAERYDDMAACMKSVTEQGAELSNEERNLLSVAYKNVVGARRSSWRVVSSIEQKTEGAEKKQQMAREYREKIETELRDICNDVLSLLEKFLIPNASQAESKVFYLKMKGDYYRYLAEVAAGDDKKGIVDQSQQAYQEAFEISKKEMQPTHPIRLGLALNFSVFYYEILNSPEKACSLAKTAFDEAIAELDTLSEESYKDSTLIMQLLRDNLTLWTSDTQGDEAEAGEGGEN


How the values were obtained:
GST–14-3-3ζ Ser184A = biological target: T1, GST–14-3-3ζ Ser184A; assay: pull-down
GST–14-3-3ζ (WT) = biological target: T2, GST–14-3-3ζ (WT); assay: pull-down

Binder | binding result (GST–14-3-3ζ Ser184A) | binding result (GST–14-3-3ζ (WT))
His-tagged Bad Ser128A-Thr201A, phosphorylated by active Akt (natural protein, mouse, UniProt Q61337 1-204, looked up, phosphoserine at 136 (by CA-Akt in vitro)) MGTPKQPSLAPAHALGLRKSDPGIRSLGSDAGGRRWRPAAQSMFQIPEFEPSEQEDASATDRGLGPSLTEDQPGPYLAPGLLGSNIHQQGRAATNSHHGGAGAMETRSRHSSYPAGTEEDEGMEEELAPFRGRSRSAPPNLWAAQRYGRELRRMSDEFEGSFKGLPRPKSAGTATQMRQSAGWTRIIQSWWDRNLGKGGSAPSQ | – | binds
His-tagged Bad Thr201A, phosphorylated by active Akt (natural protein, mouse, UniProt Q61337 1-204, looked up, phosphoserine at 136 (by CA-Akt in vitro)) MGTPKQPSLAPAHALGLRKSDPGIRSLGSDAGGRRWRPAAQSMFQIPEFEPSEQEDASATDRGLGPSLTEDQPGPYLAPGLLGSNIHQQGRAATNSHHGGAGAMETRSRHSSYPAGTEEDEGMEEELSPFRGRSRSAPPNLWAAQRYGRELRRMSDEFEGSFKGLPRPKSAGTATQMRQSAGWTRIIQSWWDRNLGKGGSAPSQ | – | binds

Next, values leading:

binding result (GST–14-3-3ζ Ser184A) | binding result (GST–14-3-3ζ (WT)) | Binder
binds | – | His-tagged Bad wild type, phosphorylated by CA-Akt (natural protein, mouse, UniProt Q61337 1-204, looked up, phosphoserine at 136 (by CA-Akt in vitro)) MGTPKQPSLAPAHALGLRKSDPGIRSLGSDAGGRRWRPAAQSMFQIPEFEPSEQEDASATDRGLGPSLTEDQPGPYLAPGLLGSNIHQQGRAATNSHHGGAGAMETRSRHSSYPAGTEEDEGMEEELSPFRGRSRSAPPNLWAAQRYGRELRRMSDEFEGSFKGLPRPKSAGTATQMRQSAGWTRIIQSWWDRNLGKGGSTPSQ
– | binds | His-tagged Bad Ser128A, phosphorylated by active Akt (natural protein, mouse, UniProt Q61337 1-204, looked up, phosphoserine at 136 (by CA-Akt in vitro)) MGTPKQPSLAPAHALGLRKSDPGIRSLGSDAGGRRWRPAAQSMFQIPEFEPSEQEDASATDRGLGPSLTEDQPGPYLAPGLLGSNIHQQGRAATNSHHGGAGAMETRSRHSSYPAGTEEDEGMEEELAPFRGRSRSAPPNLWAAQRYGRELRRMSDEFEGSFKGLPRPKSAGTATQMRQSAGWTRIIQSWWDRNLGKGGSTPSQ
